Source: the Human Domainome abundance scans (Beltran et al. 2025)
± gives the uncertainty stated by the source.

B1: GA-binding protein alpha chain, residues 172 to 250; numbered along this chain, Q06546 (parent)
chain: GYRKEQERLGIPYDPIQWSTDQVLHWVVWVMKEFSMTDIDLTTLNISGRELCSLNQEDFFQRVPRGEILWSHLELLRKY
B2: POU domain, class 3, transcription factor 2, residues 356 to 411; numbered along this chain, P20265 (parent)
chain: KKRTSIEVSVKGALESHFLKCPKPSAQEITSLADSLQLEKEVVRVWFCNRRQKEKR

Variants of: B1
Test: abundance fitness (aPCA) (normalised: wild type 0, dead -1); higher = more abundant; growth selection in yeast, the domain comes from the species named
Details: Homo sapiens

Abundance fitness: each site, then its substitutions
E5: P -0.958 ± 0.19, F -0.419 ± 0.088, T -0.347 ± 0.093, L -0.45 ± 0.05, V -0.093 ± 0.042, A -0.608 ± 0.058, R -0.913 ± 0.078, W -0.442 ± 0.094, K -0.806 ± 0.22, Q -0.485 ± 0.074, D -0.371 ± 0.074, S -0.742 ± 0.057, I 0.004 ± 0.064, H -0.354 ± 0.13, M -0.281 ± 0.077, Y -0.149 ± 0.096, C -0.288 ± 0.07, N -0.897 ± 0.24
K4: T -0.067 ± 0.1, Y -0.1 ± 0.073, D -0.104 ± 0.063, A -0.063 ± 0.044, P -0.326 ± 0.067, E -0.072 ± 0.071, W -0.12 ± 0.041, H -0.003 ± 0.11, N -0.032 ± 0.2, F -0.131 ± 0.071, R -0.029 ± 0.03, C -0.27 ± 0.055, S -0.026 ± 0.035, Q -0.106 ± 0.084, V -0.045 ± 0.038, I 0.054 ± 0.062
L9: G -0.373 ± 0.035, P -0.815 ± 0.096, I -0.081 ± 0.13, A -0.08 ± 0.053, M 0.011 ± 0.038, V -0.013 ± 0.035, S -0.174 ± 0.046, T -0.11 ± 0.055, K -0.061 ± 0.096, R -0.047 ± 0.037, E -0.117 ± 0.067, D -0.368 ± 0.095, Y -0.133 ± 0.082, Q 0.016 ± 0.055, N -0.08 ± 0.079
Q6: L 0.037 ± 0.036, F -0.184 ± 0.069, K -0.96 ± 0.13, I 0.078 ± 0.091, P -0.739 ± 0.12, V -0.069 ± 0.036, M -0.015 ± 0.09, H -0.852 ± 0.11, S -0.221 ± 0.042, T -0.172 ± 0.054, C -0.118 ± 0.067, D -0.678 ± 0.31, N -0.844 ± 0.2, W -0.498 ± 0.071, A -0.076 ± 0.041, E -0.26 ± 0.053
E7: Y -0.282 ± 0.085, G -0.315 ± 0.029, F -0.252 ± 0.063, M -0.098 ± 0.057, P -0.891 ± 0.097, Q -0.072 ± 0.054, K -0.494 ± 0.28, R -0.141 ± 0.03, A -0.071 ± 0.044, T -0.09 ± 0.046, D 0.031 ± 0.073, N -0.177 ± 0.14, V -0.172 ± 0.033, W -0.288 ± 0.05, S -0.163 ± 0.038, I -0.161 ± 0.12
R8: M -0.133 ± 0.058, N -0.191 ± 0.12, D -0.185 ± 0.099, L -0.06 ± 0.035, C -0.355 ± 0.064, H -0.21 ± 0.1, I -0.222 ± 0.1, E -0.054 ± 0.052, G -0.363 ± 0.036, F -0.368 ± 0.1, P -0.596 ± 0.07, A -0.056 ± 0.035, K -0.024 ± 0.064, Q -0.158 ± 0.061, T -0.117 ± 0.064
G1: T -0.156 ± 0.26, M 0.045 ± 0.28, L -0.634 ± 0.28, A -0.1 ± 0.061, S -0.135 ± 0.14, R 0.091 ± 0.13, E -0.164 ± 0.057, Q -0.047 ± 0.2
G10: D -0.196 ± 0.087, P -0.978 ± 0.13, M -0.096 ± 0.059, I -0.562 ± 0.23, H -0.07 ± 0.085, Q 0.01 ± 0.057, R -0.085 ± 0.033, L -0.158 ± 0.03, A -0.068 ± 0.035, K -0.041 ± 0.051, F -0.272 ± 0.079, E -0.096 ± 0.038, C -0.079 ± 0.05, N 0.028 ± 0.075
R3: V -0.262 ± 0.044, G -0.176 ± 0.031, S -0.214 ± 0.038, N -0.373 ± 0.31, M -0.158 ± 0.062, P -0.517 ± 0.068, W -0.081 ± 0.047, E -0.004 ± 0.075, L -0.182 ± 0.041, C -0.206 ± 0.055, Y -0.19 ± 0.077, Q -0.05 ± 0.048, A -0.268 ± 0.045, D -0.499 ± 0.26, K -0.083 ± 0.071, H -0.098 ± 0.08, F -0.058 ± 0.096

Variants of: B2
Test: as above
Details: Homo sapiens

Abundance fitness of substitutions, site by site:
R56: I -0.508 ± 0.48, M 0.157 ± 0.18, C 0.045 ± 0.24, W -0.234 ± 0.14, Y -0.413 ± 0.27, N 0.008 ± 0.42, S -0.194 ± 0.14, Q -0.119 ± 0.29, L 0.131 ± 0.14, P -0.58 ± 0.29, A -0.335 ± 0.23, T 0.063 ± 0.26, V -0.033 ± 0.13, E -0.031 ± 0.21, D 0.12 ± 0.18, G 0.042 ± 0.1
K55: W -0.187 ± 0.13, S 0.024 ± 0.099, P -0.396 ± 0.16, Y -0.019 ± 0.14, H -0.274 ± 0.25, Q -0.244 ± 0.2, N -0.046 ± 0.15, E 0.093 ± 0.14, F -0.167 ± 0.14, L -0.087 ± 0.084, R -0.211 ± 0.11, T -0.029 ± 0.13, M -0.056 ± 0.14, V -0.116 ± 0.1, G -0.029 ± 0.1, I -0.036 ± 0.13
